According to US20190183966A1 (EXTEND BIOSCIENCES, published 2019):

T1: PTH1 receptor expressed on mammalian cells (UniProt Q03431 27-593, limits assumed)
T1 sequence (looked up): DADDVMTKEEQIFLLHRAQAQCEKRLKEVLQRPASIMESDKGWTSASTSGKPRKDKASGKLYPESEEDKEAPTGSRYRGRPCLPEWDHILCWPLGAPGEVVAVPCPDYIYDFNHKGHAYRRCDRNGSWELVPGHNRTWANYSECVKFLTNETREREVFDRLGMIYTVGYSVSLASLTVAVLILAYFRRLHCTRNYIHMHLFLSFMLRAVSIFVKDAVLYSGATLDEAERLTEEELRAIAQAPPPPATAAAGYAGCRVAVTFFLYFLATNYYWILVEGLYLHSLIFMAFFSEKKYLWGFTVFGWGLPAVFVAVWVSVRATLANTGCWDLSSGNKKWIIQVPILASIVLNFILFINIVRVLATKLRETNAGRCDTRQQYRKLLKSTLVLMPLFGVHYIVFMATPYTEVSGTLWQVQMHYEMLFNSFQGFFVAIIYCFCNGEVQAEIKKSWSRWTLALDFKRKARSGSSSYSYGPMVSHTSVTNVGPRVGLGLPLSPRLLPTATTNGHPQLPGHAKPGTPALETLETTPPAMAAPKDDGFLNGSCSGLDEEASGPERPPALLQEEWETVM

B1: PTH-C-PEG2K-(3)-VitD (peptide)
peptide: SVSEIQLMHNLGKHLNSMERVEWLRKKLQDVHNFC
modifications: C-terminal cysteine thiol conjugated to VitD-(3)-PEG2K-maleimide carrier
B2: GLP-1-C-PEG2K-(25)-VitD (peptide)
peptide: HAEGTFTSDVSSYLEGQAAKEFIAWLVKGRGC
modifications: C-terminal cysteine thiol conjugated to VitD-(25)-PEG2K-maleimide carrier
B3: GLP-1-C-PEG2K-(3)-VitD (peptide)
peptide: B2 peptide
modifications: C-terminal cysteine thiol conjugated to VitD-(3)-PEG2K-maleimide carrier

Tests used:
[1] = molecular target: T1, PTH1 receptor expressed on mammalian …; test: cell-based or functional assay
[2] = molecular target: human GLP-1 receptor (GLP1R) stably expressed on PathHunter cells (human, UniProt P43220 24-463); test: cell-based or functional assay

Binder	Calcium EC50 [1]	cAMP EC50 [1]	EC50, recruitment of beta-Arrestin [2]
B1	14 nM	0.0186 nM	
B2			510 nM
B3			520 nM
